Measured values reported in the supplement of paper PMC11780869.

Tested on: Bacillus subtilis
Assay: cleaved RNA product abundance (RNA/gDNA barcode ratio) relative to median wild-type variant (ratio to wild type); higher = more accumulation of the downstream cleavage product
Conditions: cleavage site: cggR-gapA (positions -7 to +36 mutated)
In short: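 Truncated aprE or tetM reporter mRNAs with barcoded RNase Y cleavage-site windows, mutagenized from oligos at a 9% error rate, sat in the B. subtilis chromosome. Cells grew in LB at 37°C from OD600 0.0003 to 0.3. Gel-selected cleaved RNA was reverse transcribed and its barcodes sequenced with those from genomic DNA, collapsing by UMI. Cleaved product abundance equals the RNA:gDNA barcode ratio per construct over the median construct with the unmutated site.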

[1] = experiment (reporter, strain, medium): exp 4a: truncated aprE reporter, strain BJT201 with 2% xylose (RNase J1 expressed)
[2] = experiment (reporter, strain, medium): exp 2b: truncated aprE reporter, strain BJT200

| Sequence | cleaved RNA product abundance [1] | cleaved RNA product abundance [2] | cleaved RNA product abundance (experiment (reporter, strain, medium): exp 6: tetM reporter, strain 168) |
| --- | --- | --- | --- |
| ACAGACGAAGGAGCCGCAATGAAGTTATTAAGGGATGTATAATCCCTCAATATAAATATCTCTCACTTATTTAAA | 1.53 | – | – |
| ACAGACGAAGGAGCCGCAATGAAGTTATTAAGGGATGTATAATCCCTCAATTTAAATATCTCTCACTTATTTAAA | 0.25 | – | – |
| ACAGACGAAGGAGCCGCAATGAAGTTATTAAGGGATTAATAATCCCTCAATATAAATATCTCTCACTTATTTAAA | 1.06 | 0.989 | – |
| ACAGACGAAGGAGCCGCAATGAAGTTATTAAGGGCTGAATAATCCCTCAATATAAATATCTCTCACTTATTTAAA | 0.472 | 0.583 | – |
| ACAGACGAAGGAGCCGCAATGAAGTTATTAAGGGTTGAATAATCCCTCAATATAAATATCTCTCACTTATTTAAA | – | 0.325 | – |
| ACAGACGAAGGAGCCGCAATGAAGTTATTAAGGTATGAATAATCCCTCAATATAAATATCTCTCACTTATTTAAA | 0.146 | 0.109 | – |
| ACAGACGAAGGAGCCGCAATGAAGTTATTAAGTGATGAATAATCCCTCAATATAAATATCTCTCACTTATTTAAA | – | 0.0987 | – |
| ACAGACGAAGGAGCCGCAATGAAGTTATTAAGTGATGAATAATCCGTCAATATAAATATCTCTCACTTATTTAAA | 0.0953 | – | – |
| ACAGACGAAGGAGCCGCAATGAAGTTATTAATGGATGAATAATCCCTCAATATAAATATCTCTCACTTATTTAAA | 0.202 | 0.126 | – |
| ACAGACGAAGGAGCCGCAATGAAGTTATTATGGGATGAATAATCCCTCAATATAAATATCTCTCACTTATTTAAA | 0.464 | – | – |
| ACAGACGAAGGAGCCGCAATGAAGTTATTTAGGGATGAATAATCCCTCAATATAAATATCTCTCACTTATTTAAA | 0.738 | – | – |
| ACAGACGAAGGAGCCGCAATGAAGTTTTTAAGGGATGAATAATCCCTCAATATAAATATCTCTCACTTATTTAAA | 0.578 | – | – |
| ACAGACGAAGGAGCCGCAATGAATTTATTAAGGGATGAATAATCCCTCAATATAAATATCTCTCACTTATTTAAA | 0.786 | – | – |
| ACAGACGAAGGAGCCGCAATGTAGTTATTAAGGGATGAATAATCCCTCAATATAAATATCTCTCACTTATTTAAA | 1.43 | – | – |
| ACAGACGAAGGAGCCGCAATTAAGTTATTAAGGGATGAATAATCCCTCAATATAAATATCTCTCACTTATTTAAA | 0.863 | 0.955 | – |
| ACAGACGAAGGAGCCGCACACAAGTTATTAAGGGATGAATAATCCCTCAATATAAATATCTCTCACTTATTTAAA | 0.483 | – | – |
| ACAGACGAAGGAGCCGCACAGAACTTATTAAGGGATGAATAATCCCTCAATATAAATATCTCTCACTTATTTAAA | 0.558 | – | – |
| ACAGACGAAGGAGCCGCACAGAAGATATTAAGGGATGAATAATCCCTCAATATAAATATCTCTCACTTATTTAAA | 0.364 | – | – |
| ACAGACGAAGGAGCCGCACAGAAGTAATTAAGGGATGAATAATCCCTCAATATAAATATCTCTCACTTATTTAAA | 0.391 | – | – |
| ACAGACGAAGGAGCCGCACAGAAGTCATTAAGGGATGAATAATCCCTCAATATAAATATCTCTCACTTATTTAAA | 0.43 | – | – |

| Sequence | cleaved RNA product abundance [1] | cleaved RNA product abundance [2] | cleaved RNA product abundance (experiment (reporter, strain, medium): exp 6: tetM reporter, strain 168) |
| --- | --- | --- | --- |
| ACAGACGAAGGAGCCGCACAGAAGTGATTAAGGGATGAATAATCCCTCAATATAAATATCTCTCACTTATTTAAA | 0.311 | 0.259 | – |
| ACAGACGAAGGAGCCGCACAGAAGTTAATAAGGGATGAATAATCCCTCAATATAAATATCTCTCACTTATTTAAA | 0.309 | – | – |
| ACAGACGAAGGAGCCGCACAGAAGTTACTAAGGGATGAATAATCCCTCAATATAAATATCTCTCACTTATTTAAA | 0.22 | – | – |
| ACAGACGAAGGAGCCGCACAGAAGTTATAAAGGGATGAATAATCCCTCAATATAAATATCTCTCACTTATTTAAA | 0.414 | – | – |
| ACAGACGAAGGAGCCGCACAGAAGTTATCAAGGGATGAATAATCCCTCAATATAAATATCTCTCACTTATTTAAA | 0.365 | – | – |
| ACAGACGAAGGAGCCGCACAGAAGTTATTAAAGGATGAATAATCCCTCAATATAAATATCTCTCACTTATTTAAA | 0.177 | 0.173 | – |
| ACAGACGAAGGAGCCGCACAGAAGTTATTAACGGATGAATAATCCCTCAATATAAATATCTCTCACTTATTTAAA | 0.197 | 0.121 | – |
| ACAGACGAAGGAGCCGCACAGAAGTTATTAAGAGATGAATAATCCCTCAATATAAATATCTCTCACTTATTTAAA | 0.215 | 0.134 | – |
| ACAGACGAAGGAGCCGCACAGAAGTTATTAAGAGATGAATAATCCCTCAATATAAATTTCTCTCACTTATTTAAA | 0.113 | – | – |
| ACAGACGAAGGAGCCGCACAGAAGTTATTAAGGAATGAATAATCCCTCAATATAAATATCTCTCACTTATTTAAA | 0.143 | – | – |
| ACAGACGAAGGAGCCGCACAGAAGTTATTAAGGGAAGAATAATCCCTCAATATAAATATCTCTCACTTATTTAAA | 0.573 | 0.452 | – |
| ACAGACGAAGGAGCCGCACAGAAGTTATTAAGGGATGAACAATCCCTCAATATAAATATCTCTCACTTATTTAAA | 0.614 | – | – |
| ACAGACGAAGGAGCCGCACAGAAGTTATTAAGGGATGAATAAACCCTCAATATAAATATCTCTCACTTATTTAAA | 0.34 | 0.294 | – |
| ACAGACGAAGGAGCCGCACAGAAGTTATTAAGGGATGAATAATACCTCAATATAAATATCTCTCACTTATTTAAA | – | 0.118 | – |
| ACAGACGAAGGAGCCGCACAGAAGTTATTAAGGGATGAATAATCACTCAATATAAATATCTCTCACTTATTTAAA | 0.125 | – | – |
| ACAGACGAAGGAGCCGCACAGAAGTTATTAAGGGATGAATAATCCCTAAATATAAATATCTCTCACTTATTTAAA | 0.586 | – | – |
| ACAGACGAAGGAGCCGCACAGAAGTTATTAAGGGATGAATAATCCCTCAAAATAAATATCTCTCACTTATTTAAA | 0.337 | – | – |
| ACAGACGAAGGAGCCGCACAGAAGTTATTAAGGGATGAATAATCCCTCAACATAAATATCTCTCACTTATTTAAA | 0.294 | 0.198 | – |
| ACAGACGAAGGAGCCGCACAGAAGTTATTAAGGGATGAATAATCCCTCAATAAAAATATCTCTCACTTATTTAAA | 0.116 | – | – |
| ACAGACGAAGGAGCCGCACAGAAGTTATTAAGGGATGAATAATCCCTCAATATAAAGATCTCTCACTTATTTAAA | 0.549 | – | – |

| Sequence | cleaved RNA product abundance [1] | cleaved RNA product abundance [2] | cleaved RNA product abundance (experiment (reporter, strain, medium): exp 6: tetM reporter, strain 168) |
| --- | --- | --- | --- |
| ACAGACGAAGGAGCCGCACAGAAGTTATTAAGGGATGAATAATCCCTCAATATAAATATCTCTCACTTATTTAAA | 1.04 | 0.962 | 1.07 |
| ACAGACGAAGGAGCCGCACAGAAGTTATTAAGGGATGAATAATCCCTCAATATACATATCTCTCACTTATTTAAA | 1.13 | – | – |
| ACAGACGAAGGAGCCGCACAGAAGTTATTAAGGGATGAATAATCCCTGAATATAAATATCTCTCACTTATTTAAA | 0.523 | – | – |
| ACAGACGAAGGAGCCGCACAGAAGTTATTAAGGGATGAATAATCCCTTAATATAAATATCTCTCACTTATTTAAA | 0.633 | – | – |
| ACAGACGAAGGAGCCGCACAGAAGTTATTAAGGGATGAATAATCCTTCAATATAAATATCTCTCACTTATTTAAA | 0.469 | 0.461 | – |
| ACAGACGAAGGAGCCGCACAGAAGTTATTAAGGGATTAATAATCACTCAATATAAATATCTCTCACTTATTTAAA | 0.293 | – | – |
| ACAGACGAAGGAGCCGCACAGAAGTTATTAAGGGATTAATAATCCCTCAATATAAATATCTCTCACTTATTTAAA | 0.962 | – | – |
| ACAGACGAAGGAGCCGCACAGAAGTTATTAAGGGTTGAATAATCCCTCAATATAAATATCTCTCACTTATTTAAA | 0.473 | – | – |
| ACAGACGAAGGAGCCGCACAGAAGTTATTAAGGTATGAATAATCCCTCAATATAAATATCTCTCACTTATTTAAA | 0.198 | 0.102 | – |
| ACAGACGAAGGAGCCGCACAGAAGTTATTAAGTGATGAATAATCCCTCAATATAAATATCTCTCACTTATTTAAA | 0.126 | 0.106 | – |
| ACAGACGAAGGAGCCGCACAGAAGTTATTAATGGATGAATAATCCCTCAATATAAATATCTCTCACTTATTTAAA | 0.165 | 0.103 | – |
| ACAGACGAAGGAGCCGCACAGAAGTTATTCAGGGATGAATAATCCCTCAATATAAATATCTCTCACTTATTTAAA | 1.28 | – | – |
| ACAGACGAAGGAGCCGCACAGAAGTTATTTAGGGATGAATAATCCCTCAATATAAATATCTCTCACTTATTTAAA | 0.843 | – | – |
| ACAGACGAAGGAGCCGCACAGAAGTTCTTAAGGGATGAATAATCCCTCAATATAAATATCTCTCACTTATTTAAA | 0.275 | – | – |
| ACAGACGAAGGAGCCGCACAGAATTTATTAAGGGATGAATAATCCCTCAATATAAATATCTCTCACTTATTTAAA | 0.488 | 0.544 | – |
| ACAGACGAAGGAGCCGCACAGATGTTATTAAGGGATGAATAATCCCTCAATATAAATATCTCTCACTTATTTAAA | 1.11 | – | – |
| ACAGACGAAGGAGCCGCACATAAGTTATTAAGGGATGAATAATCCCTCAATATAAATATCTCTCACTTATTTAAA | 1.07 | 0.732 | – |
| ACAGACGAAGGAGCCGCAGAAAAGTTATTAAGGGATGAATAATCCCTCAATATAAATATCTCTCACTTATTTAAA | 1.24 | 1.14 | – |
| ACAGACGAAGGAGCCGCAGACAAGTTATTAAGGGATGAATAATCCCTCAATATAAATATCTCTCACTTATTTAAA | 0.844 | – | – |
| ACAGACGAAGGAGCCGCAGAGAAGTTAATAAGGGATGAATAATCCCTCAATATAAATATCTCTCACTTATTTAAA | 0.449 | – | – |
